In US20180030100A1:

What was measured:
[1] = biological target: Plexin A4 receptor expressed on transfected COS-7 cells; test: AP-conjugated ligand binding curves on COS-7 cells expressing Plexin A4, estimated affinity (FIG. 4E)
[2] = biological target: Plexin A4 receptor expressed on transfected COS-7 cells; test: cell-binding assay: AP-conjugated ligand on COS-7 cells expressing Plexin A4, p-nitrophenyl phosphate, absorbance at 405 nm [cont. 1). B]
[3] = biological target: Plexin A4 receptor expressed on transfected COS-7 cells; test: AP-conjugated ligand on COS-7 cells expressing Plexin A4, cell-bound AP activity with p-nitrophenyl phosphate, Scatchard plot (FIG. 4C)
[4] = biological target: Nrp1 expressed on transfected COS cells; test: AP-conjugated ligand on COS cells expressing Nrp1, cell-bound AP activity with p-nitrophenyl phosphate, binding curve (FIG. 4D)
[5] = biological target: PlexinA4 of human umbilical vein endothelial cells (human) (UniProt Q9HCM2); test: cell-based or functional assay
UniProt Q9HCM2, sequence (Q9HCM2 24-1894): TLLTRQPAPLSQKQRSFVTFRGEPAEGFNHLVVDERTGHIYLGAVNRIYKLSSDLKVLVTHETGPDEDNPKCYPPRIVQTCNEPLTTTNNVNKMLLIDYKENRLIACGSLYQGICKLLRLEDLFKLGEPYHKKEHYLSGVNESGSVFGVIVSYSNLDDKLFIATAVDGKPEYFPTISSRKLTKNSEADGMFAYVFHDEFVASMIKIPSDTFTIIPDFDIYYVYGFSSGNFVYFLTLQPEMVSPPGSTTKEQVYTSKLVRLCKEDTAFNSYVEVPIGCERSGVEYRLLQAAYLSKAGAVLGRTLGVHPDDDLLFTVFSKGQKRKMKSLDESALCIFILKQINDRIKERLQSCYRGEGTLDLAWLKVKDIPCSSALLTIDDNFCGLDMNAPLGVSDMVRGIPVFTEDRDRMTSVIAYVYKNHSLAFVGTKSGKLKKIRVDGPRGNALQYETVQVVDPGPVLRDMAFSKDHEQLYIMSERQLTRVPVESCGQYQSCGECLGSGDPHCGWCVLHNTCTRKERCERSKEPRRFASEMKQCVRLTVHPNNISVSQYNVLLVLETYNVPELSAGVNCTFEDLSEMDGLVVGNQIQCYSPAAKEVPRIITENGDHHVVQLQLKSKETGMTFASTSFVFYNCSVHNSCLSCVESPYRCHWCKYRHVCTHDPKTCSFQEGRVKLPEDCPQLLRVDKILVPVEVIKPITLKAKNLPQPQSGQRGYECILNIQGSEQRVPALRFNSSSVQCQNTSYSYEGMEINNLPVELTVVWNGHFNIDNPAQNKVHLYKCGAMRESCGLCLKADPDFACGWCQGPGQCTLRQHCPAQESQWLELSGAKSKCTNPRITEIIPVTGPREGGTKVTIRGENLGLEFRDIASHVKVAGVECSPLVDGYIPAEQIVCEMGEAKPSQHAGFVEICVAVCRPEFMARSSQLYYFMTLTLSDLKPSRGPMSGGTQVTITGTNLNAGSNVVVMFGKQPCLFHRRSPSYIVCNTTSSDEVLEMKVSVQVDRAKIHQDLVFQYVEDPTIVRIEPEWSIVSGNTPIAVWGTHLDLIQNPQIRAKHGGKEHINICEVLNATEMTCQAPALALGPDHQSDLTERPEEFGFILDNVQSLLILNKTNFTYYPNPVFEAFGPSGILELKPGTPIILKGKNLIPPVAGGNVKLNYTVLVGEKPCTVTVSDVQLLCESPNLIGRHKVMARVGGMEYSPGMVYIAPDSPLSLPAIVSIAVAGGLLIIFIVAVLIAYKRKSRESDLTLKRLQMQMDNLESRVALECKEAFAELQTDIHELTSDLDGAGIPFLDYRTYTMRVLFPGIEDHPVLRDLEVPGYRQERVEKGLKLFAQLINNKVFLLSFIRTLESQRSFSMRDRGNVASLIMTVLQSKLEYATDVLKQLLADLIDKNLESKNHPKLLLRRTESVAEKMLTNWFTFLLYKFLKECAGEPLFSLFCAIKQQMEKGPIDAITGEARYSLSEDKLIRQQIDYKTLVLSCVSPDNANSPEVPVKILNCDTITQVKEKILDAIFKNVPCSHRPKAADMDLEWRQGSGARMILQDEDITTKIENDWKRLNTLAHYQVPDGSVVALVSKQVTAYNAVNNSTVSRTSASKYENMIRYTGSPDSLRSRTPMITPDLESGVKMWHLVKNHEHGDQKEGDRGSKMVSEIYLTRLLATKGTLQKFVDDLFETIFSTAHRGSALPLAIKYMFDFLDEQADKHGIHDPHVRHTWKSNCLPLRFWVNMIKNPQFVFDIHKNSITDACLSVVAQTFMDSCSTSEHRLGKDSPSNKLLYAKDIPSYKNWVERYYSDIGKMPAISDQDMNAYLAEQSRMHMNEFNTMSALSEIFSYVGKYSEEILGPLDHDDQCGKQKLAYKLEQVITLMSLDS

For “alkaline phosphatase (AP)-conjugated mutant Sema3A ΔIg-b (from UniProt P05187 23-511) (ligand)”, the Kd [1] was 200 nM.

With “alkaline phosphatase (AP)-conjugated mutant Sema3A A106K ΔIg-b (from UniProt P05187 23-511) (ligand)” the EC50 (read off the curve) [2] was 0.5 nM, the Kd [1] was 0.7 nM and the Kd [3] was 0.7 nM.

B1: alkaline phosphatase (AP)-conjugated Sema3A WT (ligand, not shown: large carriers)
chain: NYANGKNNVPRLKLSYKEMLESNNVITFNGLANSSSYHTFLLDEERSRLYVGAKDHIFSFNLVNIKDFQKIVWPVSYTRRDECKWAGKDILKECANFIKVLEAYNQTHLYACGTGAFHPICTYIEVGHHPEDNIFKLQDSHFENGRGKSPYDPKLLTASLLIDGELYSGTAADFMGRDFAIFRTLGHHHPIRTEQHDSRWLNDPRFISAHLIPESDNPEDDKVYFFFRENAIDGEHSGKATHARIGQICKNDFGGHRSLVNKWTTFLKARLICSVPGPNGIDTHFDELQDVFLMNSKDPKNPIVYGVFTTSSNIFKGSAVCMYSMSDVRRVFLGPYAHRDGPNYQWVPYQGRVPYPRPGTCPSKTFGGFDSTKDLPDDVITFARSHPAMYNPVFPINNRPIMIKTDVNYQFTQIVVDRVDAEDGQYDVMFIGTDVGTVLKVVSVPKETWHDLEEVLLEEMTVFREPTTISAMELSTKQQQLYIGSTAGVAQLPLHRCDIYGKACAECCLARDPYCAWDGSSCSRYFPTAKRRTRRQDIRNGDPLTHCSDLQHHDNHHGPSLEERIIYGVENSSTFLECSPKSQRALVYWQFQRRNEDRKEEIRMGDHIIRTEQGLLLRSLQKKDSGNYLCHAVEHGFMQTLLKVTLEVIDTEHLEELLHKDDDGDGSKIKEMSSSMTPSQKVWYRDFMQLINHPNLNTMDEFCEQVWKRDRKQRRQRPGHSQGSSNKWKHMQESKKGRNRRTHEFERAPRSV
In the case of B1, the Kd [1] is reported as 7 nM and the Kd [4] is reported as 1.1 nM.

B2: mouse Fc-tagged Sema3A A106K ΔIg-b (Fc fusion)
chain: NYANGKNNVPRLKLSYKEMLESNNVITFNGLANSSSYHTFLLDEERSRLYVGAKDHIFSFNLVNIKDFQKIVWPVSYTRRDECKWKGKDILKECANFIKVLEAYNQTHLYACGTGAFHPICTYIEVGHHPEDNIFKLQDSHFENGRGKSPYDPKLLTASLLIDGELYSGTAADFMGRDFAIFRTLGHHHPIRTEQHDSRWLNDPRFISAHLIPESDNPEDDKVYFFFRENAIDGEHSGKATHARIGQICKNDFGGHRSLVNKWTTFLKARLICSVPGPNGIDTHFDELQDVFLMNSKDPKNPIVYGVFTTSSNIFKGSAVCMYSMSDVRRVFLGPYAHRDGPNYQWVPYQGRVPYPRPGTCPSKTFGGFDSTKDLPDDVITFARSHPAMYNPVFPINNRPIMIKTDVNYQFTQIVVDRVDAEDGQYDVMFIGTDVGTVLKVVSVPKETWHDLEEVLLEEMTVFREPTTISAMELSTKQQQLYIGSTAGVAQLPLHRCDIYGKACAECCLARDPYCAWDGSSCSRYFPTGCKPCICTVPEVSSVFIFPPKPKDVLTITLTPKVTCVVVDISKDDPEVQFSWFVDDVEVHTAQTQPREEQFNSTFRSVSELPIMHQDWLNGKEFKCRVNSAAFPAPIEKTISKTKGRPKAPQVYTIPPPKEQMAKDKVSLTCMITDFFPEDITVEWQWNGQPAENYKNTQPIMDTDGSYFVYSKLNVQKSNWEAGNTFTCSVLHEGLHNHHTEKSLSHSPGK
With B2 the Relative migration of ECs towards type I collagen at 3 h:45 m, 0.2 nM (xCELLigence) [5] was 60 % of control, the Relative migration of ECs towards type I collagen at 3 h:45 m, 0.9 nM (xCELLigence) [5] was 64 % of control and the Relative migration of ECs towards type I collagen at 3 h:45 m, 3.5 nM (xCELLigence) [5] was 55 % of control. It also gave an activation of ERK 1/2 phosphorylation in ECs (Western blot, 15 minutes) [5] of 3.9 fold.
